Assay results published in PMC5471267, “Novel regulatory mechanism of serine biosynthesis associated with 3-phosphoglycerate dehydrogenase in Arabidopsis thaliana” (Scientific Reports, 2017).
Values joined by “and” are separate entries in the source; they are usually repeats but may differ in a detail not shown here. Equal values may be shown once.

Tests used:
[1] = molecular target: AtPGDH-N2/C1: chimera of the N-terminal half of AtPGDH2 and the C-terminal half of AtPGDH1 (A. thaliana); assay: SEC; HiLoad 26/600 Superdex 200 preparation grade column, flow rate 1 mL/min, 100 mM sodium phosphate buffer (pH 9.0); native molecular weight estimated from a standard curve of marker proteins; oligomer of the protein with itself
purified protein [2] = substrate: O=C(O)[C@H](O)COP(=O)(O)O; assay: purified protein; assay type: biochemical, Arabidopsis thaliana; conditions: 1 mM NAD+, 0.1 M NaCl, pH 9.0, 25 °C
[3] = molecular target: the molecule itself; assay: SEC; HiLoad 26/600 Superdex 200 preparation grade column, flow rate 1 mL/min, 100 mM sodium phosphate buffer (pH 9.0); native molecular weight estimated from a standard curve of marker proteins; oligomer of the protein with itself
purified protein [4] = substrate: NC(=O)c1ccc[n+]([C@@H]2O[C@H](COP(=O)(O)OP(=O)(O)OC[C@H]3O[C@@H](n4cnc5c(N)ncnc54)[C@H](O)[C@@H]3O)[C@@H](O)[C@H]2O)c1; assay: purified protein; assay type: biochemical, Arabidopsis thaliana; conditions: 10 mM 3-PGA, 0.1 M NaCl, pH 9.0, 25 °C, varied: cofactor

Molecule	Km (purified protein [2]) [µM]	kcat (purified protein [2]) [s⁻¹]	stoichiometry N [3]	further results
AtPGDH-N2/C1: chimera of the N-terminal half of AtPGDH2 and the C-terminal half of AtPGDH1 (enzyme)	–	–	–	stoichiometry N [1]: 4
AtPGDH3 (Arabidopsis thaliana) (protein, mature enzyme, predicted chloroplast transit peptide removed; eXact tag cleaved (tag-free); E. coli BL21 CodonPlus(DE3)-RIL; homotetramer) GGKPTILVTEKLGQAGIDLLKKYANVDCSYDLSLEELCTKISLCDALIVRSGTKVGRDVFESSRGRLKVVGRAGVGIDNVDLAAATEYGCLVVNAPTANTVAAAEHGIALLTAMARNIAQADASIKAGKWTRNKYVGVSLVGKTLAVLGFGKVGSEVARRARGLGMHVITHDPYAPADRARAIGVELVSFEVAISTADFISLHLPLTAATSKMMNDVTFAMMKKGVRIVNVARGGVIDEEALLRALDSGIVAQAALDVFTVEPPVKDNKLVLHESVTATPHLGASTMEAQEGVSIEVAEAVIGALRGELAATAVNAPMVPLEVLRELKPYVVLAEKLGRLAVQLVTGGSGVNAVKVTYASSRAPDDLDTRLLRAMVIKGIIEPISSVFINLVNSDYIAKQRGVKISEERMVLDGSPENPIEYITVRIANVESRFASALSESGEIKVEGRVKQGVPSLTKVGLFGVDVSLEGSVILCRQVDQPGMIGKVASILGDENVNVSFMSVGRIAPGKQAVMAIGVDEQPSKETLKKIGDIPAIEEFVFLKL	770 ± 90	17	–	–
Arabidopsis thaliana 3-phosphoglycerate dehydrogenase 2 (AtPGDH2), recombinant, without the predicted transit peptide (enzyme, A. thaliana, UniProt O04130-1 50-624, looked up, AtPGDH2 (At1g17745), A. thaliana; region that corresponds with the mature enzyme, the chloroplast transit peptide having been predicted by comparison with MtPGDH; theoretical molecular weight 57.6 kDa; Found as an equilibrium of homooctamers and homotetramers; also called At1g17745) AALKTVEQTTLTEDNRFSTVGSDSDEYNPTLPKPRILVTEKLGEAGVNLLREFGDVDCSYDLSPEDLKKKVAESDALIVRSGTKVTREVFEAAKGRLKVVGRAGVGIDNVDLQAATEHGCLVVNAPTANTVAAAEHGIALLASMARNVAQADASIKAGKWERSKYVGVSLVGKTLAVMGFGKVGTEVARRAKGLGMTVISHDPYAPADRARALGVDLVSFDQAISTADFVSLHMPLTPATKKVFNDETFSKMKKGVRLINVARGGVIDEDALVRALDAGIVAQAALDVFCEEPPSKDSRLIQHENVTVTPHLGASTKEAQEGVAIEIAEAVAGALKGELSATAVNAPMVAPEVLSELTPYIVLAEKLGRLAVQLASGGKGVQSIRVVYRSARDRDDLDTRLLRAMITKGIIEPISDSYVNLVNADFIAKQKGLRISEERMVVDSSPEYPVDSIQVQILNVESNFAGAVSDAGDISIEGKVKYGVPHLTCVGSFGVDVSLEGNLILCRQVDQPGMIGQVGNILGEQNVNVNFMSVGRTVLRKQAIMAIGVDEEPDNKTLERIGGVSAIEEFVFLKL	–	–	8 and 4	–
AtPGDH2 (Arabidopsis thaliana) (protein, mature enzyme, predicted chloroplast transit peptide removed; eXact tag cleaved (tag-free); E. coli BL21 CodonPlus(DE3)-RIL; equilibrium of homooctamers and homotetramers) LPKPRILVTEKLGEAGVNLLREFGDVDCSYDLSPEDLKKKVAESDALIVRSGTKVTREVFEAAKGRLKVVGRAGVGIDNVDLQAATEHGCLVVNAPTANTVAAAEHGIALLASMARNVAQADASIKAGKWERSKYVGVSLVGKTLAVMGFGKVGTEVARRAKGLGMTVISHDPYAPADRARALGVDLVSFDQAISTADFVSLHMPLTPATKKVFNDETFSKMKKGVRLINVARGGVIDEDALVRALDAGIVAQAALDVFCEEPPSKDSRLIQHENVTVTPHLGASTKEAQEGVAIEIAEAVAGALKGELSATAVNAPMVAPEVLSELTPYIVLAEKLGRLAVQLASGGKGVQSIRVVYRSARDRDDLDTRLLRAMITKGIIEPISDSYVNLVNADFIAKQKGLRISEERMVVDSSPEYPVDSIQVQILNVESNFAGAVSDAGDISIEGKVKYGVPHLTCVGSFGVDVSLEGNLILCRQVDQPGMIGQVGNILGEQNVNVNFMSVGRTVLRKQAIMAIGVDEEPDNKTLERIGGVSAIEEFVFLKL	1030 ± 70	16	–	Km (purified protein [4]): 123 ± 7 µM; kcat (purified protein [4]): 16 s⁻¹
Arabidopsis thaliana 3-phosphoglycerate dehydrogenase 1 (AtPGDH1), recombinant, without the predicted transit peptide (enzyme, A. thaliana, UniProt O49485 55-603, looked up, AtPGDH1 (At4g34200), A. thaliana; region that corresponds with the mature enzyme, the chloroplast transit peptide having been predicted by comparison with MtPGDH; theoretical molecular weight 57.5 kDa; The start of the 'mature' region is a prediction of the authors from an alignment with MtPGDH; also called At4g34200) STGDGSKPTILVAEKLGDAGIKLLEDVANVDCSYNMTPEELNIKISLCDALIVRSGTKVGREVFESSHGRLKVVGRAGVGIDNVDLSAATEFGCLVVNAPTANTIAAAEHGIALMAAMARNVAQADASVKAGEWKRNKYVGVSLVGKTLAVLGFGKVGTEVARRAKGLGMRVIAHDPYAPADRAHAIGVDLVSFDEALATADFISLHMPLTPTTSKILNDETFAKMKKGVRIVNVARGGVIDEDALVRALDAGIVAQAALDVFTKEPPAKDSKLVQHERVTVTPHLGASTMEAQEGVAIEIAEAVVGALNGELAATAVNAPMVSAEVLTELKPYVVLAEKLGRLAVQLVAGGSGVKNAKITYASARATDDLDTRLLRAMITKGIIEPISDVYVNLVNADFTAKQRGLRLSEERVLLDGSPESPLETITVQLSNVESKFASSLSESGEVKVEGKVKDGVPHLTKVGSFEVDVTLEGSIILCRQVDQPGMIGTVGSILGESNVNVNFMSVGRIAPRKQAIMAIGVDDIPSKETLKKIGEIPAVEEFVFLKL	–	–	4	–
Arabidopsis thaliana 3-phosphoglycerate dehydrogenase 3 (AtPGDH3), recombinant, without the predicted transit peptide (enzyme, A. thaliana, UniProt Q9LT69 39-588, looked up, region that corresponds with the mature enzyme, the chloroplast transit peptide having been predicted by comparison with MtPGDH; theoretical molecular weight 57.9 kDa; also called At3g19480) SSSGGGGKPTILVTEKLGQAGIDLLKKYANVDCSYDLSLEELCTKISLCDALIVRSGTKVGRDVFESSRGRLKVVGRAGVGIDNVDLAAATEYGCLVVNAPTANTVAAAEHGIALLTAMARNIAQADASIKAGKWTRNKYVGVSLVGKTLAVLGFGKVGSEVARRARGLGMHVITHDPYAPADRARAIGVELVSFEVAISTADFISLHLPLTAATSKMMNDVTFAMMKKGVRIVNVARGGVIDEEALLRALDSGIVAQAALDVFTVEPPVKDNKLVLHESVTATPHLGASTMEAQEGVSIEVAEAVIGALRGELAATAVNAPMVPLEVLRELKPYVVLAEKLGRLAVQLVTGGSGVNAVKVTYASSRAPDDLDTRLLRAMVIKGIIEPISSVFINLVNSDYIAKQRGVKISEERMVLDGSPENPIEYITVRIANVESRFASALSESGEIKVEGRVKQGVPSLTKVGLFGVDVSLEGSVILCRQVDQPGMIGKVASILGDENVNVSFMSVGRIAPGKQAVMAIGVDEQPSKETLKKIGDIPAIEEFVFLKL	–	–	4	–
AtPGDH1 (Arabidopsis thaliana) (protein, mature enzyme, predicted chloroplast transit peptide removed; eXact tag cleaved (tag-free); E. coli BL21 CodonPlus(DE3)-RIL; homotetramer) GSKPTILVAEKLGDAGIKLLEDVANVDCSYNMTPEELNIKISLCDALIVRSGTKVGREVFESSHGRLKVVGRAGVGIDNVDLSAATEFGCLVVNAPTANTIAAAEHGIALMAAMARNVAQADASVKAGEWKRNKYVGVSLVGKTLAVLGFGKVGTEVARRAKGLGMRVIAHDPYAPADRAHAIGVDLVSFDEALATADFISLHMPLTPTTSKILNDETFAKMKKGVRIVNVARGGVIDEDALVRALDAGIVAQAALDVFTKEPPAKDSKLVQHERVTVTPHLGASTMEAQEGVAIEIAEAVVGALNGELAATAVNAPMVSAEVLTELKPYVVLAEKLGRLAVQLVAGGSGVKNAKITYASARATDDLDTRLLRAMITKGIIEPISDVYVNLVNADFTAKQRGLRLSEERVLLDGSPESPLETITVQLSNVESKFASSLSESGEVKVEGKVKDGVPHLTKVGSFEVDVTLEGSIILCRQVDQPGMIGTVGSILGESNVNVNFMSVGRIAPRKQAIMAIGVDDIPSKETLKKIGEIPAVEEFVFLKL	500 ± 50	15	–	Km (purified protein [4]): 50 ± 2 µM; kcat (purified protein [4]): 15 s⁻¹
